Results taken from patent publication US20250011363A1, “OPTIMIZED SHORTENED PEPTIDE THAT BINDS TO ACETYLCHOLINE RECEPTOR, AND USE THEREOF” (SKINMED CO., LTD., priority 2021, published 2025).

Each substance was assayed against acetylcholine receptor (Homo sapiens, UniProt P02708) (assay: SPR binding affinity (RU) of optimized 5mer/6mer/7mer peptides, Examples 6-7). Details: SPR, Resonance Units; peptides tested at 10 μM; 6mer-2 Top sequence (Table 12).
Procedure, shortened: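 Peptides were tested at 10 μM by surface plasmon resonance against the receptor, with binding reported as response units. Library sequences were built from frequent (top) or infrequent (bottom) amino acid combinations in 5mer, 6mer-1 and 6mer-2 series.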

acetylcholine receptor, sequence (P02708 21-457): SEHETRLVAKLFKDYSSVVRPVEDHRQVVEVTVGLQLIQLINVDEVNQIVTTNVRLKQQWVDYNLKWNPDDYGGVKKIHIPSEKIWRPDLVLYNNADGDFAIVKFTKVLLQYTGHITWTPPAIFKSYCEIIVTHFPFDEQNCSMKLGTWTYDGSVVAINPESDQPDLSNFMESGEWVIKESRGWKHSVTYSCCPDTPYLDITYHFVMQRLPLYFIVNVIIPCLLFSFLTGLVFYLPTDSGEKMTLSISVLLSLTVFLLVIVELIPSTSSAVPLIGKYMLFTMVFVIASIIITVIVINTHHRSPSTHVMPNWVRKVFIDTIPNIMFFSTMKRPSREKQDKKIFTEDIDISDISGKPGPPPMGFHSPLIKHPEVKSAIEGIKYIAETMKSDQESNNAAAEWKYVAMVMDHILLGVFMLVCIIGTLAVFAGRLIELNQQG

Substance | Binding affinity
KWRQKR [6mer-2-233] | 190 Ru

Same assay, conditions: SPR, peptides at 10 μM

Substance | Binding affinity (RU)
KWRQKR [6mer-2-233] | 190 RU

Same assay, conditions: SPR, peptides at 10 μM; 6mer-2 Bottom sequence

Substance | Binding affinity
6mer-2-1183 (RENNRK) | 35 Ru
6mer-2-1184 (KFWVRR) | 22 Ru
6mer-2-1185 (RIDAKK) | 42 Ru
6mer-2-1186 (KEKFRR) | 27 Ru
6mer-2-1187 (RTADRK) | 36 Ru
6mer-2-1188 (RAPARR) | 22 Ru
6mer-2-1189 (KTAPKK) | 40 Ru
6mer-2-1190 (KACIRR) | 32 Ru
6mer-2-1191 (KKADRK) | 35 Ru
6mer-2-1192 (KHKNKR) | 40 Ru
6mer-2-1193 (REKIRR) | 43 Ru
6mer-2-1194 (KYCDRK) | 35 Ru
6mer-2-1195 (KMTERK) | 25 Ru
6mer-2-1196 (RESKKR) | 39 Ru
6mer-2-1197 (KNCIKK) | 23 Ru
6mer-2-1198 (RMSHRR) | 27 Ru
6mer-2-1199 (RCTNKR) | 27 Ru
6mer-2-1200 (RHHNRR) | 30 Ru

Same assay, conditions: SPR; XRRGVRR-7mer and RRGVRRX-7mer

Substance | Binding affinity, values relative to the RRGVRR sequence
3641 (GRRGVRR) [compound 3641] | 137
3642 (ARRGVRR) [compound 3642] | 134
3643 (VRRGVRR) [compound 3643] | 140
3644 (CRRGVRR) [compound 3644] | 128
3645 (PRRGVRR) [compound 3645] | 138
3646 (LRRGVRR) [compound 3646] | 149
3647 (IRRGVRR) [compound 3647] | 126
3648 (MRRGVRR) [compound 3648] | 124
3649 (WRRGVRR) [compound 3649] | 134
3650 (FRRGVRR) [compound 3650] | 139
3651 (SRRGVRR) [compound 3651] | 117
3652 (TRRGVRR) [compound 3652] | 105
3653 (YRRGVRR) [compound 3653] | 145
3654 (NRRGVRR) [compound 3654] | 109
3655 (QRRGVRR) [compound 3655] | 101
3656 (KRRGVRR) [compound 3656] | 169
3657 (RRRGVRR) [compound 3657] | 185
3658 (HRRGVRR) [compound 3658] | 160
3659 (DRRGVRR) [compound 3659] | 159
3660 (ERRGVRR) [compound 3660] | 43

Substance | Binding affinity, values relative to the RRGVRR sequence
3661 (RRGVRRG) [compound 3661] | 105
3662 (RRGVRRA) [compound 3662] | 118
3663 (RRGVRRV) [compound 3663] | 149
3664 (RRGVRRC) [compound 3664] | 131
3665 (RRGVRRP) [compound 3665] | 142
3666 (RRGVRRL) [compound 3666] | 146
3667 (RRGVRRI) [compound 3667] | 138
3668 (RRGVRRM) [compound 3668] | 127
3669 (RRGVRRW) [compound 3669] | 134
3670 (RRGVRRF) [compound 3670] | 137
3671 (RRGVRRS) [compound 3671] | 118
3672 (RRGVRRT) [compound 3672] | 113
3673 (RRGVRRY) [compound 3673] | 101
3674 (RRGVRRN) [compound 3674] | 105
3675 (RRGVRRQ) [compound 3675] | 105
3676 (RRGVRRK) [compound 3676] | 171
3677 (RRGVRRR) [compound 3677] | 188
3678 (RRGVRRH) [compound 3678] | 154
3679 (RRGVRRD) [compound 3679] | 61
3680 (RRGVRRE) [compound 3680] | 33

Same assay, conditions: SPR; XRRQRR-6mer and RRQRRX-6mer

Substance | Binding affinity, relative value to the RRQRR sequence
3601 (GRRQRR) [compound 3601] | 132
3602 (ARRQRR) [compound 3602] | 129
3603 (VRRQRR) [compound 3603] | 135
3604 (CRRQRR) [compound 3604] | 123
3605 (PRRQRR) [compound 3605] | 133
3606 (LRRQRR) [compound 3606] | 144
3607 (IRRQRR) [compound 3607] | 121
3608 (MRRQRR) [compound 3608] | 119
3609 (WRRQRR) [compound 3609] | 138
3610 (FRRQRR) [compound 3610] | 143
3611 (SRRQRR) [compound 3611] | 121
3612 (TRRQRR) [compound 3612] | 103
3613 (YRRQRR) [compound 3613] | 130
3614 (NRRQRR) [compound 3614] | 113
3615 (QRRQRR) [compound 3615] | 105
3616 (KRRQRR) [compound 3616] | 173
3617 (RRRQRR) [compound 3617] | 189
3618 (HRRQRR) [compound 3618] | 164
3619 (DRRQRR) [compound 3619] | 163
3620 (ERRQRR) [compound 3620] | 147

Substance | Binding affinity, relative value to the RRQRR sequence
3621 (RRQRRG) [compound 3621] | 109
3622 (RRQRRA) [compound 3622] | 113
3623 (RRQRRV) [compound 3623] | 120
3624 (RRQRRC) [compound 3624] | 126
3625 (RRQRRP) [compound 3625] | 137
3626 (RRQRRL) [compound 3626] | 141
3627 (RRQRRI) [compound 3627] | 133
3628 (RRQRRM) [compound 3628] | 122
3629 (RRQRRW) [compound 3629] | 129
3630 (RRQRRF) [compound 3630] | 132
3631 (RRQRRS) [compound 3631] | 113
3632 (RRQRRT) [compound 3632] | 117
3633 (RRQRRY) [compound 3633] | 105
3634 (RRQRRN) [compound 3634] | 109
3635 (RRQRRQ) [compound 3635] | 101
3636 (RRQRRK) [compound 3636] | 175
3637 (RRQRRR) [compound 3637] | 192
3638 (RRQRRH) [compound 3638] | 158
3639 (RRQRRD) [compound 3639] | 65
3640 (RRQRRE) [compound 3640] | 37

Each substance was assayed against T1, Acetylcholine receptor-overexpressing TE671 cells (Homo sapiens, UniProt P02708) (assay: Calcium imaging (Fura-2-AM) of nicotine response, acetylcholine receptor inhibition). Details: TE671 cells, nicotine 400 uM, calcium imaging.
T1 construct: endogenous in cells; host or cells: TE671 cells
T1 sequence (P07510 23-517): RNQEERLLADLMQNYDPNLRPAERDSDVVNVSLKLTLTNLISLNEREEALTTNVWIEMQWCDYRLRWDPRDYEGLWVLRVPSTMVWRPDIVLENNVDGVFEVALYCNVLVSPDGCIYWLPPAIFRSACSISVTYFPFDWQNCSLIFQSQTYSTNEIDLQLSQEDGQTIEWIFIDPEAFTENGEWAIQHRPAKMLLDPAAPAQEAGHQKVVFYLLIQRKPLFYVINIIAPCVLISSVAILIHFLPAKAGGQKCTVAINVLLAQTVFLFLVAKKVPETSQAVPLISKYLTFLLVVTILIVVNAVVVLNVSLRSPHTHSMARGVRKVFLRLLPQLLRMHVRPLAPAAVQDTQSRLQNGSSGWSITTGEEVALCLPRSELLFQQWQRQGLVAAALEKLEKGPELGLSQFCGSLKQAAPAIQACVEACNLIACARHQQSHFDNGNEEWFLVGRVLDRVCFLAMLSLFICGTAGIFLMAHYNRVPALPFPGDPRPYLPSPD
T1 sequence (P11230 24-501, further chain): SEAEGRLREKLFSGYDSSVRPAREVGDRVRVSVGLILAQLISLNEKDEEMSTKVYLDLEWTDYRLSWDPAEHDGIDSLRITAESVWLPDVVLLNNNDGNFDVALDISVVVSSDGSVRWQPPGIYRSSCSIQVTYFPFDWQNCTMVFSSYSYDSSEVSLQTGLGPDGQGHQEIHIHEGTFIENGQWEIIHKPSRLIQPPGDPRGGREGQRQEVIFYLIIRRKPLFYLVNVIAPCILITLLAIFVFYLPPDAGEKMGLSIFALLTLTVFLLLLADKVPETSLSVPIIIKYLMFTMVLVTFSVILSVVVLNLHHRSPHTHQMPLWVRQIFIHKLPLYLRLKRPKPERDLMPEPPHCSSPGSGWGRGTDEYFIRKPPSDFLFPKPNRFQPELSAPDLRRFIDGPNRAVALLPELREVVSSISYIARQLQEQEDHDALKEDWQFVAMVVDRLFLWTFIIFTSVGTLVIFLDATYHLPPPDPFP
T1 sequence (Q07001 22-517, further chain): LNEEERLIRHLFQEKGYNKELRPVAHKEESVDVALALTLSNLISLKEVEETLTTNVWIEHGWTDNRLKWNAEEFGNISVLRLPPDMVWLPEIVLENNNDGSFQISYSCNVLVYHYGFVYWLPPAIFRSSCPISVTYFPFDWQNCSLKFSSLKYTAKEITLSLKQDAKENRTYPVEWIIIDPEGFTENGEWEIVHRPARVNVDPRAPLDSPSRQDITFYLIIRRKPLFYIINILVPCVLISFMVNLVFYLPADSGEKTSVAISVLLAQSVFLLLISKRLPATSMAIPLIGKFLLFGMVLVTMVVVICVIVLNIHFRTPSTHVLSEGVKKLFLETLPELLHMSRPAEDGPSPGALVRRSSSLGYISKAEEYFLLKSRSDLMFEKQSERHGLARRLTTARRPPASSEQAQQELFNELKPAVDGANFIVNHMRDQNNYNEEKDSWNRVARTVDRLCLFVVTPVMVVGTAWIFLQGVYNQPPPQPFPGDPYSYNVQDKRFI
T1 sequence (P02708 21-457): as the sequence (P02708 21-457) above
Format: cell-based
Description: Acetylcholine receptor-overexpressing TE671 cells were cultured at 37° C. in DMEM medium supplemented with 10% FBS and 1% P/S under 5% CO2. After the TE671 cells were sufficiently grown for 4 days, the cells were detached using trypsin and the cell culture was plated in an amount of 1 ml at a density of 2×10^4 cells/well into 12-well cell culture plate with an 18 mm cover-slip lined therein, and cultured for 4 days.
The cover-slip on which the cells had grown was transferred to a fresh 12-well cell culture plate, and 997 μl of HBSS buffer and 3 μl of Fura-2-AM were added and gently mixed, followed by incubation at 37° C., 5% CO2 for 15 minutes. After incubation, the remaining Fura-2-AM was removed by washing 3-4 times with 1 ml of HBSS buffer, and an additional 1 ml was added. The cover-slip with the grown cells was placed in a chamber, and 500 μl of HBSS buffer was dispensed. The final concentration of nicotine was adjusted to 400 µM to observe the calcium imaging reaction. Then, while keeping the nicotine concentration fixed, the concentration of the sample was adjusted to find the inhibiting concentration.
The inhibitory ability of the Palmitate-6mer-1-43 and Palmitate-5mer-73 peptides on the acetylcholine receptor was examined in the same manner as in Example 6. Additionally, the inhibitory ability (IC50) of the optimized short peptides and the palmitate-modified peptides according to the present disclosure against acetylcholine receptor was compared with Synake and is depicted in FIG. 16.

Substance | concentration at which acetylcholine receptors were inhibited
KWRQKR [6mer-2-233] | 10 µM
